# Laboratory results: US20230151340A1, “PLASTIC DEGRADING FUSION PROTEINS AND METHODS OF USING THE SAME” (Alliance for Sustainable Energy, LLC, priority 2020, published 2023)
# B1: Ideonella sakaiensis 201-F6 MHETase (Is MHETase), wild type, Genbank GAP38911.1, C-terminal His tag (DNA SEQ ID NO: 1) (Pseudideonella sakaiensis) (protein)
# chain: CAGGGSTPLPLPQQQPPQQEPPPPPVPLASRAACEALKDGNGDMVWPNAATVVEVAAWRDAAPATASAAALPEHCEVSGAIAKRTGIDGYPYEIKFRLRMPAEWNGRFFMEGGSGTNGSLSAATGSIGGGQIASALSRNFATIATDGGHDNAVNDNPDALGTVAFGLDPQARLDMGYNSYDQVTQAGKAAVARFYGRAADKSYFIGCSEGGREGMMLSQRFPSHYDGIVAGAPGYQLPKAGISGAWTTQSLAPAAVGLDAQGVPLINKSFSDADLHLLSQAILGTCDALDGLADGIVDNYRACQAAFDPATAANPANGQALQCVGAKTADCLSPVQVTAIKRAMAGPVNSAGTPLYNRWAWDAGMSGLSGTTYNQGWRSWWLGSFNSSANNAQRVSGFSARSWLVDFATPPEPMPMTQVAARMMKFDFDIDPLKIWATSGQFTQSSMDWHGATSTDLAAFRDRGGKMILYHGMSDAAFSALDTADYYERLGAAMPGAAGFARLFLVPGMNHCSGGPGTDRFDMLTPLVAWVERGEAPDQISAWSGTPGYFGVAARTRPLCPYPQIARYKGSGDINTEANFACAAPP
# B2: Comamonas thiooxydans MHETase (putative MHETase, Genbank WP_080747404.1), C-terminal His tag (Comamonas thiooxydans) (protein)
# chain: HMFVRNADRAKNCMRAPLRVFPLKDTFSAQCANVSVWITSSVPPLRERHMDRRVTRRDLMQTRILLMLIAATGVAACGGDGGSTPAAQNPPLPLASRAACEAFQGNSNSIAWPHRATVVEVATWHEAEPANATAAATPEHCEISGAIARRTGIDGYPYEIKFRLRMPSEWNGRFFMEGGGGTNGSLSAATGSLGGGQTASALSRNFATIATDGGHDNAVNNNPDALGTVAFGMDPQARIDMGYNSYDQVTQAGKAAVAQFYGRAPDKSYFIGCSEGGREGMMLSQRFPSHYDGIVAGAPGYQLPKAGISGAWTTQSLAPAAVGVDAQNVPLINKAFSDVDLHLLSRGILGTCDALDGLSDGIVNDFRACQAAFDPATALNPDTSQPLQCTGAKTPDCLSAAQVTGIKRAMGGPVDSAGAALYNRWAWDPGMSGLNGTSYNQGWRSWWLGSYASSTNNAQRVNGFSARSWLVDFATPPEPMPVTQVAARMMNFNFDTDPPKIRATSGPFTPSSMEWHGATSTNLAAFRDRGGKLMLYHGMSDAAFSALDTADYYERLGAAMPGAAGFARLFLVPGMNHCSGGPGTDRFDMLTPLVAWVERDKAPDQVSAWAGTPGYFGATARTRPLCPYPQIARYKGSGDINAEASFVCVAPLE
# What was measured:
# [1] = substrate: O=C(O)c1ccc(C(=O)OCCO)cc1; experiment: purified protein, by the assay type; details: other: MHET 10-250 μM, 5 nM enzyme, pH 7.5, 30° C., substrate inhibition model
# [2] = substrate: O=C(O)c1ccc(C(=O)OCCO)cc1; experiment: Michaelis-Menten kinetics of MHETase and variants (substrate inhibition model); format: biochemical, Comamonas thiooxydans; details: other: MHET 10-250 μM, 5 nM enzyme, pH 7.5, 30° C.
Protein,Km [1] [µM],Km [2] [µM],Vmax [2] [µM/min],kcat/Km [2] [M⁻¹ s⁻¹]
B1,23.17 ± 1.65,–,–,–
B2,–,174.70 ± 4.75,12.2,230000
